Test results as given in patent publication US20100061942A1 (UNIVERSITY OF MEDICINE AND DENTISTRY OF NEW JERSEY, published 2010).

Target: human STIM1 (human, UniProt Q13586 23-685, limits assumed)
Assay: co-immunoprecipitation from CHO cell lysates, Western blot; repeated with cross-linker DSP and different detergents
Procedure: Next, the interaction of P311 with SOCE molecular machinery was examined experimentally. The interaction of P311 with known components of SOCE, such as STIM1 and Orai1, was studied. A GFP-myc-Orai1 plasmid and the mammalian expression plasmid containing the human STIM1 cDNA (OriGene, Inc.) were used. The plasmids were transfected into CHO cells and 36 hours after transfection, total cell lysates from CHO cells transiently expressing GFP-myc-Orai1 were incubated with either a polyclonal antibody against P311, or an anti-myc monoclonal antibody, with normal rabbit IgG serving as the control. […] Similar results were obtained when co-IP assays were repeated using reversible cross-linker DSP and different detergents in cell lysis buffer, including Triton X-100, NP-40 and CHAPS.

Chain of human STIM1 (Q13586 23-685 limits assumed): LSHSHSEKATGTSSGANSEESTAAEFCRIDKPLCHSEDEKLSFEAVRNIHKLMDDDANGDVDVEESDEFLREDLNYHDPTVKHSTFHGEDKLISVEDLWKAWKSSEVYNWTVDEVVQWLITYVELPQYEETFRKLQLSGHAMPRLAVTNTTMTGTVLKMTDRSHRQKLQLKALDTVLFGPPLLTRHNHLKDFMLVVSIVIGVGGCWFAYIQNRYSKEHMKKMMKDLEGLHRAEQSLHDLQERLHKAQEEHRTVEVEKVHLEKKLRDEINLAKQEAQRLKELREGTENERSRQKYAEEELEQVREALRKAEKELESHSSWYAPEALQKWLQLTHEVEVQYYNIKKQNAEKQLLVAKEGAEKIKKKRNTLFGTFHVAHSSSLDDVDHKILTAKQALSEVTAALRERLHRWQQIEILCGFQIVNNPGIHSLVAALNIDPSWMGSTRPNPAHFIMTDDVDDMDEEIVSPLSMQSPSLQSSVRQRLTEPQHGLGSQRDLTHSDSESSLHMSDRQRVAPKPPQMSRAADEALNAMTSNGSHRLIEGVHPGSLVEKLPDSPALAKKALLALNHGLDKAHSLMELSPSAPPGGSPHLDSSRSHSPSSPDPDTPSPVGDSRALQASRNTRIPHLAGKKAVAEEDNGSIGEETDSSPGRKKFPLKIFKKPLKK

binding result: no binding
B1: P311 (endogenous P311 present in CHO cells) (other)
chain: MVYYPGLLVWVSQEPFLYKEMEGSLTKGRLPVPKEVNRKKLEEARAASMTPPGSHELCFPNISYL
